± gives the uncertainty stated by the source.

Drawing on the Human Domainome abundance scans (Beltran et al. 2025), this text covers abundance fitness for 73 variants.

The labels stand for the following.
B1: POU domain, class 3, transcription factor 3, residues 408 to 463; numbered along this chain, P20264 (parent)
chain: KKRTSIEVSVKGALESHFLKCPKPSAQEITNLADSLQLEKEVVRVWFCNRRQKEKR

Variants of B1 are the subject of the data set. The data set is described as follows: abundance fitness (aPCA) (normalised: wild type 0, dead -1); higher = more abundant; growth selection in yeast, the domain comes from the species named. The conditions noted are these: Homo sapiens.
Take KKRTSIEVSVKGALESHFLKCPKPSAQEITNLADSLQLEKEVVRVWFCNRRQKEAR: the abundance fitness was -0.038 ± 0.098.

For the variant KKRTSIEVSVKGALESHFLKCPKPSAQEITNLADSLQLEKEVVRVWFCNRRQKESR, the abundance fitness was -0.011 ± 0.098.

As for KKRTSIEVSVKGALESHFLKCPKPSAQEITNLADSLQLEKEVVRVWFCNRRQKENR, the abundance fitness came to 0.021 ± 0.14.

For the variant KKRTSIEVSVKGALESHFLKCPKPSAQEITNLADSLQLEKEVVRVWFCNRRQKEPR, the abundance fitness is -0.265 ± 0.16.

In the case of KKRTSIEVSVKGALESHFLKCPKPSAQEITNLADSLQLEKEVVRVWFCNRRQKEWR, the abundance fitness is -0.129 ± 0.12.

As to KKRTSIEVSVKGALESHFLKCPKPSAQEITNLADSLQLEKEVVRVWFCNRRQKEHR, the abundance fitness is -0.122 ± 0.19.

For KKRTSIEVSVKGALESHFLKCPKPSAQEITNLADSLQLEKEVVRVWFCNRRQKEFR, the abundance fitness was -0.312 ± 0.17.

Consider KKRTSIEVSVKGALESHFLKCPKPSAQEITNLADSLQLEKEVVRVWFCNRRQKEGR, for which the abundance fitness stood at 0.053 ± 0.074.

For the variant KKRTSIEVSVKGALESHFLKCPKPSAQEITNLADSLQLEKEVVRVWFCNRRQKERR, the abundance fitness was -0.089 ± 0.075.

For KKRTSIEVSVKGALESHFLKCPKPSAQEITNLADSLQLEKEVVRVWFCNRRQKEDR, the abundance fitness was -0.079 ± 0.12.

In the case of KKRTSIEVSVKGALESHFLKCPKPSAQEITNLADSLQLEKEVVRVWFCNRRQKELR, the abundance fitness was -0.006 ± 0.087.

Regarding KKRTSIEVSVKGALESHFLKCPKPSAQEITNLADSLQLEKEVVRVWFCNRRQKECR, the abundance fitness is -0.14 ± 0.13.

Regarding KKRTSIEVSVKGALESHFLKCPKPSAQEITNLADSLQLEKEVVRVWFCNRRQKEVR, the abundance fitness is -0.031 ± 0.081.

Regarding KKRTSIEVSVKGALESHFLKCPKPSAQEITNLADSLQLEKEVVRVWFCNRRQKEIR, the abundance fitness was -0.234 ± 0.15.

For the variant KKRTSIEVSVKGALESHFLKCPKPSAQEITNLADSLQLEKEVVRVWFCNRRQKEQR, the abundance fitness was -0.132 ± 0.16.

Regarding KKRTSIEVSVKGALESHFLKCPKPSAQEITNLADSLQLEKEVVRVWFCNRRQKETR, the abundance fitness was -0.095 ± 0.099.

For the variant KKRTSIEVSVKGALESHFLKCPKPSAQEITNLADSLQLEKEVVRVWFCNRRQKEER, the abundance fitness was determined as 0.024 ± 0.11.

Take KKRTSIEVSVKGALESHFLKCPKPSAQEITNLADSLQLEKEVVRVWFCNRRQKEMR: the abundance fitness was -0.096 ± 0.1.

With KKRTSIEVSVKGALESHFLKCPKPSAQEITNLADSLQLEKEVVRVWFCNRRQKEKW, the abundance fitness is -0.272 ± 0.13.

Regarding KKRTSIEVSVKGALESHFLKCPKPSAQEITNLADSLQLEKEVVRVWFCNRRQKEKS, the abundance fitness is -0.151 ± 0.27.

Regarding KKRTSIEVSVKGALESHFLKCPKPSAQEITNLADSLQLEKEVVRVWFCNRRQKEKM, the abundance fitness turned out to be 0.002 ± 0.31.

With KKRTSIEVSVKGALESHFLKCPKPSAQEITNLADSLQLEKEVVRVWFCNRRQKEKH, the abundance fitness is -0.277 ± 0.41.

Regarding KKRTSIEVSVKGALESHFLKCPKPSAQEITNLADSLQLEKEVVRVWFCNRRQKEKT, the abundance fitness was -0.05 ± 0.2.

KKRTSIEVSVKGALESHFLKCPKPSAQEITNLADSLQLEKEVVRVWFCNRRQKEKE: the abundance fitness came to 0.093 ± 0.17.

Consider KKRTSIEVSVKGALESHFLKCPKPSAQEITNLADSLQLEKEVVRVWFCNRRQKEKN, for which the abundance fitness is -0.143 ± 0.45.

Consider KKRTSIEVSVKGALESHFLKCPKPSAQEITNLADSLQLEKEVVRVWFCNRRQKEKD, for which the abundance fitness was -0.247 ± 0.26.

With KKRTSIEVSVKGALESHFLKCPKPSAQEITNLADSLQLEKEVVRVWFCNRRQKEKC, the abundance fitness was -0.435 ± 0.25.

Regarding KKRTSIEVSVKGALESHFLKCPKPSAQEITNLADSLQLEKEVVRVWFCNRRQKEKP, the abundance fitness is -0.226 ± 0.29.

Turning to KKRTSIEVSVKGALESHFLKCPKPSAQEITNLADSLQLEKEVVRVWFCNRRQKEKA, the abundance fitness was -0.046 ± 0.12.

Regarding KKRTSIEVSVKGALESHFLKCPKPSAQEITNLADSLQLEKEVVRVWFCNRRQKEKV, the abundance fitness was -0.039 ± 0.081.

With KKRTSIEVSVKGALESHFLKCPKPSAQEITNLADSLQLEKEVVRVWFCNRRQKEKG, the abundance fitness is -0.068 ± 0.086.

KKRTSIEVSVKGALESHFLKCPKPSAQEITNLADSLQLEKEVVRVWFCNRRQCEKR: the abundance fitness was -0.152 ± 0.11.

For KKRTSIEVSVKGALESHFLKCPKPSAQEITNLADSLQLEKEVVRVWFCNRRQSEKR, the abundance fitness was 0.068 ± 0.082.

KKRTSIEVSVKGALESHFLKCPKPSAQEITNLADSLQLEKEVVRVWFCNRRQVEKR: the abundance fitness is -0.03 ± 0.087.

Turning to KKRTSIEVSVKGALESHFLKCPKPSAQEITNLADSLQLEKEVVRVWFCNRRQGEKR, the abundance fitness is -0.212 ± 0.072.

KKRTSIEVSVKGALESHFLKCPKPSAQEITNLADSLQLEKEVVRVWFCNRRQPEKR: the abundance fitness is -0.6 ± 0.13.

For KKRTSIEVSVKGALESHFLKCPKPSAQEITNLADSLQLEKEVVRVWFCNRRQTEKR, the abundance fitness is -0.067 ± 0.12.

For KKRTSIEVSVKGALESHFLKCPKPSAQEITNLADSLQLEKEVVRVWFCNRRQMEKR, the abundance fitness was -0.167 ± 0.11.

In the case of KKRTSIEVSVKGALESHFLKCPKPSAQEITNLADSLQLEKEVVRVWFCNRRQIEKR, the abundance fitness is -0.121 ± 0.13.

For KKRTSIEVSVKGALESHFLKCPKPSAQEITNLADSLQLEKEVVRVWFCNRRQNEKR, the abundance fitness was -0.248 ± 0.24.

Regarding KKRTSIEVSVKGALESHFLKCPKPSAQEITNLADSLQLEKEVVRVWFCNRRQFEKR, the abundance fitness is -0.156 ± 0.15.

For the variant KKRTSIEVSVKGALESHFLKCPKPSAQEITNLADSLQLEKEVVRVWFCNRRQHEKR, the abundance fitness is -0.194 ± 0.14.

Regarding KKRTSIEVSVKGALESHFLKCPKPSAQEITNLADSLQLEKEVVRVWFCNRRQAEKR, the abundance fitness was 0.076 ± 0.1.

As to KKRTSIEVSVKGALESHFLKCPKPSAQEITNLADSLQLEKEVVRVWFCNRRQREKR, the abundance fitness is -0.044 ± 0.064.

For KKRTSIEVSVKGALESHFLKCPKPSAQEITNLADSLQLEKEVVRVWFCNRRQYEKR, the abundance fitness is -0.288 ± 0.18.

KKRTSIEVSVKGALESHFLKCPKPSAQEITNLADSLQLEKEVVRVWFCNRRQLEKR: the abundance fitness worked out at 0.032 ± 0.08.

On to KKRTSIEVSVKGALESHFLKCPKPSAQEITNLADSLQLEKEVVRVWFCNRRQEEKR, for which the abundance fitness is -0.013 ± 0.12.

For the variant KKRTSIEVSVKGALESHFLKCPKPSAQEITNLADSLQLEKEVVRVWFCNRRQDEKR, the abundance fitness turned out to be 0.196 ± 0.22.

Turning to KKRTSIEVSVKGALESHFLKCPKPSAQEITNLADSLQLEKEVVRVWFCNRRQQEKR, the abundance fitness is -0.041 ± 0.1.

Consider KKRTSIEVSVKGALESHFLKCPKPSAQEITNLADSLQLEKEVVRVWFCNRRTKEKR, for which the abundance fitness is -0.227 ± 0.13.

In the case of KKRTSIEVSVKGALESHFLKCPKPSAQEITNLADSLQLEKEVVRVWFCNRRPKEKR, the abundance fitness is -0.705 ± 0.14.

As for KKRTSIEVSVKGALESHFLKCPKPSAQEITNLADSLQLEKEVVRVWFCNRRVKEKR, the abundance fitness was -0.112 ± 0.083.

Consider KKRTSIEVSVKGALESHFLKCPKPSAQEITNLADSLQLEKEVVRVWFCNRRYKEKR, for which the abundance fitness is -0.257 ± 0.14.

As to KKRTSIEVSVKGALESHFLKCPKPSAQEITNLADSLQLEKEVVRVWFCNRRRKEKR, the abundance fitness is -0.138 ± 0.069.

As to KKRTSIEVSVKGALESHFLKCPKPSAQEITNLADSLQLEKEVVRVWFCNRRWKEKR, the abundance fitness was -0.185 ± 0.1.

For KKRTSIEVSVKGALESHFLKCPKPSAQEITNLADSLQLEKEVVRVWFCNRRSKEKR, the abundance fitness was 0.014 ± 0.09.

On to KKRTSIEVSVKGALESHFLKCPKPSAQEITNLADSLQLEKEVVRVWFCNRRQKHKR, for which the abundance fitness is -0.432 ± 0.18.

Consider KKRTSIEVSVKGALESHFLKCPKPSAQEITNLADSLQLEKEVVRVWFCNRRQKPKR, for which the abundance fitness is -0.543 ± 0.15.

As to KKRTSIEVSVKGALESHFLKCPKPSAQEITNLADSLQLEKEVVRVWFCNRRQKTKR, the abundance fitness is -0.281 ± 0.11.

Take KKRTSIEVSVKGALESHFLKCPKPSAQEITNLADSLQLEKEVVRVWFCNRRQKQKR: the abundance fitness is -0.241 ± 0.12.

As to KKRTSIEVSVKGALESHFLKCPKPSAQEITNLADSLQLEKEVVRVWFCNRRQKIKR, the abundance fitness was -0.748 ± 0.18.

Turning to KKRTSIEVSVKGALESHFLKCPKPSAQEITNLADSLQLEKEVVRVWFCNRRQKDKR, the abundance fitness stood at 0.058 ± 0.11.

Consider KKRTSIEVSVKGALESHFLKCPKPSAQEITNLADSLQLEKEVVRVWFCNRRQKGKR, for which the abundance fitness was -0.234 ± 0.079.

In the case of KKRTSIEVSVKGALESHFLKCPKPSAQEITNLADSLQLEKEVVRVWFCNRRQKRKR, the abundance fitness is -0.485 ± 0.078.

For KKRTSIEVSVKGALESHFLKCPKPSAQEITNLADSLQLEKEVVRVWFCNRRQKCKR, the abundance fitness was -0.366 ± 0.14.

For KKRTSIEVSVKGALESHFLKCPKPSAQEITNLADSLQLEKEVVRVWFCNRRQKNKR, the abundance fitness was -0.474 ± 0.2.

As to KKRTSIEVSVKGALESHFLKCPKPSAQEITNLADSLQLEKEVVRVWFCNRRQKSKR, the abundance fitness was -0.365 ± 0.081.

With KKRTSIEVSVKGALESHFLKCPKPSAQEITNLADSLQLEKEVVRVWFCNRRQKKKR, the abundance fitness is -0.658 ± 0.15.

As to KKRTSIEVSVKGALESHFLKCPKPSAQEITNLADSLQLEKEVVRVWFCNRRQKFKR, the abundance fitness is -0.598 ± 0.14.

With KKRTSIEVSVKGALESHFLKCPKPSAQEITNLADSLQLEKEVVRVWFCNRRQKLKR, the abundance fitness was -0.365 ± 0.08.

Take KKRTSIEVSVKGALESHFLKCPKPSAQEITNLADSLQLEKEVVRVWFCNRRQKAKR: the abundance fitness is -0.185 ± 0.074.

As for KKRTSIEVSVKGALESHFLKCPKPSAQEITNLADSLQLEKEVVRVWFCNRRQKVKR, the abundance fitness is -0.252 ± 0.075.

Take KKRTSIEVSVKGALESHFLKCPKPSAQEITNLADSLQLEKEVVRVWFCNRRQKMKR: the abundance fitness is -0.148 ± 0.15.
